We go through one molecule from patent US20220340658A1 (WASHINGTON UNIVERSITY, published 2022).

The target of the assay is SARS-CoV-1 spike protein (SARS-CoV-1, UniProt P59594 14-1190). Nature of the assay: ELISA, hybridoma supernatant.

B1: SARS2-38 (antibody, V domains shown)
VH: QVQLKESGPGLVAPSQSLSITCTVSGFSLTRYGVHWVRQPPGKGLEWLGVIWADGSTYYNSALMSRLSISKDNSKSQVFLNMNSLQTDDTAKYYCARDGRGYDDYWGQGTTLTVSS
VL: QIVLTQSPAIMSASPGEKVTMTCSASSTVSFIYWYQQKPGSSPRLLIYDTSNPASGVPVRFSGSGCGTSYYLTISRMEAEDAATYYCQQWNTYPLTFGAGTKLELK
For B1, the binding result is “no binding”.
